Measured values taken from patent US20230287088A1 (BIONTECH, published 2023).
Where two headings read alike, the source gives them in different places.

Assays:
[1] = target: T1, His-tagged SARS-CoV S1-RBD (Sino Biologicals) (SARS-CoV, UniProt P59594 306-527); assay: ELISA on coated His-tagged SARS-CoV S1-RBD [D00020 Figure 8A continued]
T1 construct: domain: S1-RBD; Bought reagent

[2] = target: T2, Human-Fc-tagged SARS-CoV2 S1 recombinant protein (Sino Biologicals) (SARS-CoV-2, UniProt P0DTC2 16-685)
[3] = target: T3, Mouse-Fc-tagged SARS-CoV2 S1-RBD (Sino Biologicals) recombinant protein (SARS-CoV-2, UniProt P0DTC2 319-541); assay: ELISA on coated S1-RBD-mFc
T3 construct: domain: S1-RBD

[4] = target: T2, Human-Fc-tagged SARS-CoV2 S1 …; assay: ELISA on coated S1-hFc, 3 µg/ml; rabbit antibody in B-cell supernatant
[5] = target: T3, Mouse-Fc-tagged SARS-CoV2 S1-RBD (Sino …); assay: competition ELISA: blocks S1-RBD-mFc binding to coated ACE-2 ECD
[6] = target: T2, Human-Fc-tagged SARS-CoV2 S1 …; assay: ELISA on coated S1-hFc, 0.85 µg/ml; rabbit antibody in B-cell supernatant
[7] = target: T3, Mouse-Fc-tagged SARS-CoV2 S1-RBD (Sino …); assay: ELISA on coated S1-RBD-mFc; remark: listed apart in the source
[8] = target: T3, Mouse-Fc-tagged SARS-CoV2 S1-RBD (Sino …); assay: competition ELISA: blocks S1-RBD-mFc binding to coated ACE-2 ECD; remark: listed apart in the source
[9] = target: T3, Mouse-Fc-tagged SARS-CoV2 S1-RBD (Sino …); assay: SPR, S1-RBD-mFc captured via anti-mouse-Fc antibody, 1:1 model

| Binder | binding result [1] | IC50 [2] | EC50 [3] | EC50 [4] | IC50 [5] | EC50 [6] | EC50 [7] | IC50 [8] | IC90 [8] | Kd [9] | koff [9] | kon [9] |
| --- | --- | --- | --- | --- | --- | --- | --- | --- | --- | --- | --- | --- |
| P043.A.00036.C07 (antibody, V domains shown, also called 448; protein sample ID 448) VH: QSLEESGGDLVKPGASLTLTCTASGFSFSSSYWICWVRQAPGKGLEWIGCIYTGSGSTWYASWAKGRFTISKTSSTTVTLQMTSLTAADTATYFCARGYGSYMYDFWGPGTLVTVSS VL: DVVMTQTPASVEAAVGGTVTIKCQASQSISTALAWYQQKPGQPPKLLIYSASTLESGVPSRFKGSGSGTEFTLAISDLESADAATYYCQGADGSSSSFGGGTEVVVK | no binding (tested: 1000 ng/ml) | 0.0141 µg/mL | 0.007 µg/mL | 0.0387 µg/mL | 0.0434 µg/mL |  |  |  |  |  |  |  |
| P043.A.00109.B12 (antibody, V domains shown, also called 468; protein sample ID 468) VH: QSLEESGGGLVKPEGSLTLTCKASGFDLNTYYYMCWVRQAPGKGLEWIACIATSDSGHTAYASWARGRFTISKTSSTTVTLQMTGLTAADTATYFCARGGRSVGDGVDLWGPGTLVTVSS VL: DIVMTQTPASVEAAVGGTVTIKCQASQSISSWLAWYQQKPGQPPKLLIYDASDLASGVPSRFKGSGSGTEFTLTISDLESADAATYYCQSYLYVESGSHGFGFGGGTEVVVR |  | 0.0181 µg/mL | 0.0056 µg/mL |  | 0.0216 µg/mL | 0.018 µg/mL |  |  |  |  |  |  |
| 462 (bispecific antibody, also called LC of P043.A.00024.C11 with a C-terminal fusion of a scFv of anti-S1 antibody; HC of P043.A.00024.C11 as IgG1-LALA-LS) heavy chain: QSVEESGGRLVTPGTPLTLTCTVSGFSLSSYAMSWVRQAPGKGLEWIGIISSSGTTYYASWAKGPFTISKTSTTVDLKITSPTTEDTATYFCARGGAGYGYAHYYGMDPWGPGTLVTVSSASTKGPSVFPLAPSSKSTSGGTAALGCLVKDYFPEPVTVSWNSGALTSGVHTFPAVLQSSGLYSLSSVVTVPSSSLGTQTYICNVNHKPSNTKVDKRVEPKSCDKTHTCPPCPAPEAAGGPSVFLFPPKPKDTLMISRTPEVTCVVVDVSHEDPEVKFNWYVDGVEVHNAKTKPREEQYNSTYRVVSVLTVLHQDWLNGKEYKCKVSNKALPAPIEKTISKAKGQPREPQVYTLPPSREEMTKNQVSLTCLVKGFYPSDIAVEWESNGQPENNYKTTPPVLDSDGSFFLYSKLTVDKSRWQQGNVFSCSVLHEALHSHYTQKSLSLSPGK light chain fused to scFv: AIQMTQSPSSLAASVGDTVTITCKASEDIGYGLNWYQQKLGIAPKLLIYGANTLESGVPSRFSGSGSETDYTLTISSVQAEDAGIYYCQQGYSTPLTFGAGTKVEIKRTVAAPSVFIFPPSDEQLKSGTASVVCLLNNFYPREAKVQWKVDNALQSGNSQESVTEQDSKDSTYSLSSTLTLSKADYEKHKVYACEVTHQGLSSPVTKSFNRGECDVPGGSGGGGSGGGGSGGGGSQMQLVQSGTEVKKPGESLKISCKGSGYGFITYWIGWVRQMPGKCLEWMGIIYPGDSETRYSPSFQGQVTISADKSINTAYLQWSSLKASDTAIYYCAGGSGISTPMDVWGQGTTVTVGGGGSGGGGSGGGGSGGGGSDIQLTQSPDSLAVSLGERATINCKSSQSVLYSSINKNYLAWYQQKPGQPPKLLIYWASTRESGVPDRFSGSGSGTDFTLTISSLQAEDVAVYYCQQYYSTPYTFGCGTKVEIK |  |  |  |  |  |  | 0.0119 µg/mL | 0.0464 µg/mL | 0.948 µg/mL |  |  |  |
| P043.A.00032.C04 (antibody, V domains shown, also called 452; protein sample ID 452) VH: QSLEESGGRLVTPGTPLTLTCTASGFSLSSYWMSWVRQAPGKGLEWIGIIYVSGSTYYASWAKGRFTISKTSTTVDLKMTSLTTEDTATYFCARVDYSTGWPLFNIWGPGTLVTVSL VL: AQVLTQTASPVSAAVGGTVTINCQSSQSVYDNNWLGWYQQKPGQPPKLLIYGASILASGVPSRFKGSGSGTQFTLTISDLESDDAATYYCQGGCSGNTFVFGGGTEVVVK | no binding (tested: 1000 ng/ml) | 0.0147 µg/mL | 0.007 µg/mL | 0.0265 µg/mL | 0.115 µg/mL |  |  |  |  |  |  |  |
| P043.A.00023.E05 (antibody, V domains shown, also called 443; protein sample ID 443) VH: QSLEESGGRLVTPGTPLTLTCTVSGFSLSSYAMSWVRQAPGKGLEWIGIISSSGSTYYASWAKGRFTISKTSTTVDLKITSPTTEDTATYFCARDASSRGYYYYYGMDPWGPGTLVTVSS VL: AIQMTQSPSSLAASVGDTVTITCKASEDIGYGLNWYQQKLGIAPKLLIYGANTLESGVPSRFSGSGSETDYTLTISSVQAEDAGIYYCQQGYSTPLTFGAGTKVEIK | no binding (tested: 1000 ng/ml) | 0.0082 µg/mL | 0.0112 µg/mL | 0.0166 µg/mL | 0.0349 µg/mL |  |  |  |  | 268 pM | 0.000263 s⁻¹ | 982000 M⁻¹ s⁻¹ |
| P043.A.00023.A08 (protein sample ID 446) (antibody, V domains shown) VH: QSVEESGGRLVTPGTPLTLTCTVSGFSLSKYAMSWVRQAPGKGLEWIGIISSGGSTYYASWAKGRFTISKTSSTTVDLKITSPTTEDTATYFCARAGYPGYSPHYFNIWGPGTLVTVSL VL: AIQMTQSPSSLAASVGDTVTITCKASEDIGYELNWYQQKLGIAPKLLIYGANTLESGVPSRFTGSGSETDYTLTISSVQAEDAGIYYCQQGYSTPPTFGAGTKVEIK | no binding (tested: 1000 ng/ml) | 0.0047 µg/mL | 0.0081 µg/mL | 0.0085 µg/mL | 0.0373 µg/mL |  | 0.007 µg/mL | 0.028 µg/mL | 18 µg/mL | 115 pM | 0.000243 s⁻¹ | 2.12e+06 M⁻¹ s⁻¹ |
| P043.A.00092.C12 (antibody, V domains shown, also called 472; protein sample ID 472) VH: QEELKETGGGLVQPGGSLTLSCKASGFDFSSYYMSWVRQAPGKGLEWIGVIYASKGSTDYASWVNGRFTISSDNAQNTVDLQMNSLTAADTATYYCARSKRFYTYGYAGYAYAHYYYGMDLWGPGTLVTVSS VL: AIQMTQSPSSLAASVGDTVTITCKASEDIGYGLNWYQQKLGIAPKLLIYGADTLESGVPSRFSGSGSETDYTLTISSVQAEDAGIYYCQQGYSTPLTFGAGTKVEIK |  | 0.0065 µg/mL | 0.0083 µg/mL |  | 0.0299 µg/mL | 0.0068 µg/mL |  |  |  |  |  |  |
| P043.A.00017.E04 (antibody, V domains shown) VH: QSVEESGGRLVTPGTPLTLTCTVSGFSLNNYAMNWVRQAPGKGLEWIGIISSSGNTYYANWAKGRFTISKTSTTVDLKITSPTTEDTATYFCARDSYPGYSPYYGMDPWGPGTLVTVSS VL: AIQMTQSPSSLAASVGDTVTITCKASEDIAYGLNWYQQKLGITPKLLIYGANTLESGVPSRFSGSGSETHYTLTISSVQAEDAGIYYCQQGYNTPPTFGAGTKVEIK | no binding (tested: 1000 ng/ml) | 0.0093 µg/mL | 0.0082 µg/mL | 0.0196 µg/mL | 0.0321 µg/mL |  |  |  |  | 422 pM | 0.000327 s⁻¹ | 445000 M⁻¹ s⁻¹ |
| P043.A.00097.B02 (antibody, V domains shown) VH: QELVESGGGLVQAGESLKLSCKASGIDFSSYGISWVRQAPGKGLEWIAYIYPGFGITNYANSVKGRFTISSDNAQNTVFLQMTSLTASDTATYFCTRAYASSSGYYIHYFNLWGPGTLVTVSS VL: AIQMTQSPSSLAASVGDTVTITCKASEDIGYGLNWYQQKLGIAPKLLIYGANTLESGVPSRFSGSGSETDYTLTISSVQAEDAGIYYCQQAYSTPLTFGAGTKVEIK |  | 0.0055 µg/mL | 0.0034 µg/mL |  | 0.0417 µg/mL | 0.0054 µg/mL |  |  |  |  |  |  |
| P043.A.00018.C02 (protein sample ID 450) (antibody, V domains shown) VH: QSVEESGGRLVTPGTPLTLTCTVSGFSLSSYAMSWVRQAPGKGLEWIGIINSGRSTYYASWAKGRFTISKTSTTVDLKITSPTTEDTATYFCARDATSIGYYRYYGMDPWGPGTLVTVSS VL: AIQMTQSPSSLAASVGDTVTITCKASEDIGYGLNWYQQKLGIAPKLLIYGANTLESGVPSRFSGSGSETDYTLTISSVQAEDAGIYYCQQGYSTPLTFGAGTKVEIK | no binding (tested: 1000 ng/ml) | 0.001 µg/mL | 0.0082 µg/mL | 0.0017 µg/mL | 0.0433 µg/mL |  | 0.0077 µg/mL | 0.0286 µg/mL | 61.2 µg/mL | 398 pM | 0.000283 s⁻¹ | 714000 M⁻¹ s⁻¹ |
| P043.A.00024.C11 (protein sample ID 451) (antibody, V domains shown) VH: QSVEESGGRLVTPGTPLTLTCTVSGFSLSSYAMSWVRQAPGKGLEWIGIISSSGTTYYASWAKGPFTISKTSTTVDLKITSPTTEDTATYFCARGGAGYGYAHYYGMDPWGPGTLVTVSS VL: AIQMTQSPSSLAASVGDTVTITCKASEDIGYGLNWYQQKLGIAPKLLIYGANTLESGVPSRFSGSGSETDYTLTISSVQAEDAGIYYCQQGYSTPLTFGAGTKVEIK | no binding (tested: 1000 ng/ml) | 0.0036 µg/mL | 0.007 µg/mL | 0.0048 µg/mL | 0.0423 µg/mL |  | 0.0064 µg/mL | 0.0391 µg/mL | 99.2 µg/mL | 770 pM | 0.000307 s⁻¹ | 398000 M⁻¹ s⁻¹ |
